Here are results for six sequences from the supplement of paper PMC5998384.

The test system of data set [1] is HeLa Kyoto. As to the kind of experiment: melting temperature (median over replicates), in situ; higher = more thermally stable.
The test system of data set [2] is HeLa Kyoto. As to the kind of experiment: thermal stability score vs G1/S (z-score of summed log2 fold changes over temperatures); higher = more thermally stable than in G1/S.
[3] abbreviates: cell cycle stage: early G1 (4.5 h after nocodazole release).
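Throughout, for melting temperature (median over replicates), in situ: HeLa Kyoto cells synchronized by double thymidine or nocodazole block, proteins quantified by TMT10plex mass spectrometry, three independent biological replicates.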
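Throughout, for thermal stability score vs G1/S (z-score of summed log2 fold changes over temperatures): synchronized HeLa Kyoto cells, proteins quantified by TMT10plex mass spectrometry, three biological replicates, mitosis taken 0.5 h after nocodazole release, G1/S directly after double thymidine block.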

In the case of “MAMWNRPCQRLPQQPLVAEPTAEGEPHLPTGRELTEANRFAYAALCGISLSQLFPEPEHSSFCTEFMAGLVQWLELSEAVLPTMTAFASGLGGEGADVFVQILLKDPILKDDPTVITQDLLSFSLKDGHYDARARVLVCHMTSLLQVPLEELDVLEEMFLESLKEIKEEESEMAEASRKKKENRRKWKRYLLIGLATVGGGTVIGVTGGLAAPLVAAGAATIIGSAGAAALGSAAGIAIMTSLFGAAGAGLTGYKMKKRVGAIEEFTFLPLTEGRQLHITIAVTGWLASGKYRTFSAPWAALAHSREQYCLAWEAKYLMELGNALETILSGLANMVAQEALKYTVLSGIVAALTWPASLLSVANVIDNPWGVCLHRSAEVGKHLAHILLSRQQGRRPVTLIGFSLGARVIYFCLQEMAQEKDCQGIIEDVILLGAPVEGEAKHWEPFRKVVSGRIINGYCRGDWLLSFVYRTSSVQLRVAGLQPVLLQDRRVENVDLTSVVSGHLDYAKQMDAILKAVGIRTKPGWDEKGLLLAPGCLPSEEPRQAAAAASSGETPHQVGQTQGPISGDTSKLAMSTDPSQAQVPVGLDQSEGASLPAAASPERPPICSHGMDPNPLGCPDCACKTQGPSTGLD [TMCO4]”, the melting temperature in data set [1] (cell cycle stage: mitosis) was 53.7 °C. Besides, the thermal stability score in data set [2] (setting [3]) is -0.364; in data set [2] (cell cycle stage: mitosis) it was 0.512.
On to “MAVAAAAAAGPVFWRRLLGLLPGRPGLAALLGRLSDRLGRNRDRQRRRSPWLLLAPLLSPAVPQVTSPPCCLCPEGVHRFQWIRNLVPEFGVSSSHVRVLSSPAEFFELMKGQIRVAKRRVVMASLYLGTGPLEQELVDCLESTLEKSLQAKFPSNLKVSILLDFTRGSRGRKNSRTMLLPLLRRFPEQVRVSLFHTPHLRGLLRLLIPERFNETIGLQHIKVYLFDNSVILSGANLSDSYFTNRQDRYVFLQDCAEIADFFTELVDAVGDVSLQLQGDDTVQVVDGMVHPYKGDRAEYCKAANKRVMDVINSARTRQQMLHAQTFHSNSLLTQEDAAAAGDRRPAPDTWIYPLIQMKPFEIQIDEIVTETLLTEAERGAKVYLTTGYFNLTQAYMDLVLGTRAEYQILLASPEVNGFFGAKGVAGAIPAAYVHIERQFFSEVCSLGQQERVQLQEYWRRGWTFHAKGLWLYLAGSSLPCLTLIGSPNFGYRSVHRDLEAQIAIVTENQALQQQLHQEQEQLYLRSGVVSSATFEQPSRQVKLWVKMVTPLIKNFF [PGS1]”, for which the melting temperature in data set [1] (cell cycle stage: G1/S) and in data set [1] (cell cycle stage: mitosis) was 53.2 °C each time. Further, the results for the thermal stability score in data set [2] (setting [3]) and in data set [2] (cell cycle stage: mitosis) were 0.0742 and -0.577, respectively.
As to “MEHFDASLSTYFKALLGPRDTRVKGWFLLDNYIPTFICSVIYLLIVWLGPKYMRNKQPFSCRGILVVYNLGLTLLSLYMFCELVTGVWEGKYNFFCQGTRTAGESDMKIIRVLWWYYFSKLIEFMDTFFFILRKNNHQITVLHVYHHASMLNIWWFVMNWVPCGHSYFGATLNSFIHVLMYSYYGLSSVPSMRPYLWWKKYITQGQLLQFVLTIIQTSCGVIWPCTFPLGWLYFQIGYMISLIALFTNFYIQTYNKKGASRRKDHLKDHQNGSMAAVNGHTNSFSPLENNVKPRKLRKD [ELOVL5]”, the melting temperature in data set [1] (cell cycle stage: G1/S) was determined as 53.3 °C; in data set [1] (cell cycle stage: mitosis), 53.7 °C. In addition, the thermal stability score was -0.682 in data set [2] (setting [3]) and -0.967 in data set [2] (cell cycle stage: mitosis).
In the same order, the values of “MGKVWKQQMYPQYATYYYPQYLQAKQSLVPAHPMAPPSPSTTSSNNNSSSSSNSGWDQLSKTNLYIRGLPPHTTDQDLVKLCQPYGKIVSTKAILDKTTNKCKGYGFVDFDSPAAAQKAVSALKASGVQAQMAKQQEQDPTNLYISNLPLSMDEQELENMLKPFGQVISTRILRDSSGTSRGVGFARMESTEKCEAVIGHFNGKFIKTPPGVSAPTEPLLCKFADGGQKKRQNPNKYIPNGRPWHREGEVRLAGMTLTYDPTTAAIQNGFYPSPYSIATNRMITQTSITPYIASPVSAYQVQSPSWMQPQPYILQHPGAVLTPSMEHTMSLQPASMISPLAQQMSHLSLGSTGTYMPATSAMQGAYLPQYAHMQTTAVPVEEASGQQQVAVETSNDHSPYTFQPNK [RBMS1]” are 53.4 °C, 52.4 °C, -0.758 and -1.24.
In the same order, the values of “MISLTDTQKIGMGLTGFGVFFLFFGMILFFDKALLAIGNVLFVAGLAFVIGLERTFRFFFQKHKMKATGFFLGGVFVVLIGWPLIGMIFEIYGFFLLFRGFFPVVVGFIRRVPVLGSLLNLPGIRSFVDKVGESNNMV [GOLT1B]” are 59 °C, 54.6 °C, -3.12 and -4.7.
In the case of “MKSVIYHALSQKEANDSDVQPSGAQRAEAFVRAFLKRSTPRMSPQAREDQLQRKAVVLEYFTRHKRKEKKKKAKGLSARQRRELRLFDIKPEQQRYSLFLPLHELWKQYIRDLCSGLKPDTQPQMIQAKLLKADLHGAIISVTKSKCPSYVGITGILLQETKHIFKIITKEDRLKVIPKLNCVFTVETDGFISYIYGSKFQLRSSERSAKKFKAKGTIDL [POP4]”, in data set [1] (cell cycle stage: G1/S), the melting temperature amounted to 52.4 °C. In addition, the thermal stability score in data set [2] (setting [3]) was -1.07; in data set [2] (cell cycle stage: mitosis), -2.15.
